The values below come from patent US20090318349.

Changes are numbered by the printed parent chain.

For data set [1], the target named is wild type human growth hormone, P01241.
Sequence of wild type human growth hormone, P01241 (P01241 27-217): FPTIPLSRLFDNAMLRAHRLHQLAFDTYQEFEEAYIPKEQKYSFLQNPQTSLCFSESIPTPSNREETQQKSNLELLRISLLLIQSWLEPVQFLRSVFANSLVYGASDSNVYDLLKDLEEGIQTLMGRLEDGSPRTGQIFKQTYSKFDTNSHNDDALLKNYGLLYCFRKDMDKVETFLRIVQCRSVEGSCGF

Sequence of hGHQ141N, P01241 (P01241 27-217 Q167N): as the sequence (P01241 27-217) above, with Q141N counted along it
Sequence of hGHQ40N, P01241 (P01241 27-217 Q66N): as the sequence (P01241 27-217) above, with Q40N counted along it

B1: Met-mTGase from S. mobaraensis (protein)
chain: MDSDDRVTPPAEPLDRMPDPYRPSYGRAETVVNNYIRKWQQVYSHRDGRKQQMTEEQREWLSYGCVGVTWVNSGQYPTNRLAFASFDEDRFKNELKNGRPRSGETRAEFEGRVAKESFDEEKGFQRAREVASVMNRALENAHDESAYLDNLKKELANGNDALRNEDARSPFYSALRNTPSFKERNGGNHDPSRMKAVIYSKHFWSGQDRSSSADKRKYGDPDAFRPAPGTGLVDMSRDRNIPRSPTSPGEGFVNFDYGWFGAQTEADADKTVWTHGNHYHAPNGSLGAMHVYESKFRNWSEGYSDFDRGAYVITFIPKSWNTAPDKVKQGWP
In the case of B1, the Activity towards hGHQ141N (RFU/sec/µg) in the data set with hGHQ141N, P01241 was found to be 1.24 RFU/sec/µg. In the data set with hGHQ40N, P01241, this protein showed an Activity towards hGHQ40N (RFU/sec/µg) of 5.44 RFU/sec/µg.

B2: AlaPro-mTGase from S. mobaraensis (protein)
chain: APDSDDRVTPPAEPLDRMPDPYRPSYGRAETVVNNYIRKWQQVYSHRDGRKQQMTEEQREWLSYGCVGVTWVNSGQYPTNRLAFASFDEDRFKNELKNGRPRSGETRAEFEGRVAKESFDEEKGFQRAREVASVMNRALENAHDESAYLDNLKKELANGNDALRNEDARSPFYSALRNTPSFKERNGGNHDPSRMKAVIYSKHFWSGQDRSSSADKRKYGDPDAFRPAPGTGLVDMSRDRNIPRSPTSPGEGFVNFDYGWFGAQTEADADKTVWTHGNHYHAPNGSLGAMHVYESKFRNWSEGYSDFDRGAYVITFIPKSWNTAPDKVKQGWP
Take B2: in data set [1], the “conversion rate, CE, reaction time 30 minutes” value is recorded as “conversion rate=32%”; the hGH conv. rate (%) stood at 33%; the hGH conv. rate (%), reference of the separate experiment was found to be 39%. In addition, the Activity towards hGHQ141N (RFU/sec/µg) in the data set with hGHQ141N, P01241 came to 1.56 RFU/sec/µg. The same protein gave an Activity towards hGHQ40N (RFU/sec/µg) with hGHQ40N, P01241 of 5.05 RFU/sec/µg.

B3: GlyPro-mTGase from S. mobaraensis (protein)
chain: B2 chain with A1G
On to B3, for which the Activity towards hGHQ141N (RFU/sec/µg) in the data set with hGHQ141N, P01241 is 1.13 RFU/sec/µg. In the data set with hGHQ40N, P01241, the Activity towards hGHQ40N (RFU/sec/µg) stood at 4.28 RFU/sec/µg.

B4: Met-mTGase from S. ladakanum (protein)
chain: MDSDERVTPPAEPLDRMPDPYRPSYGRAETIVNNYIRKWQQVYSHRDGRKQQMTEEQREWLSYGCVGVTWVNSGQYPTNRLAFAFFDEDKYKNELKNGRPRSGETRAEFEGRVAKDSFDEAKGFQRARDVASVMNKALENAHDEGAYLDNLKKELANGNDALRNEDARSPFYSALRNTPSFKDRNGGNHDPSKMKAVIYSKHFWSGQDRSGSSDKRKYGDPEAFRPDRGTGLVDMSRDRNIPRSPTSPGESFVNFDYGWFGAQTEADADKTVWTHGNHYHAPNGSLGAMHVYESKFRNWSDGYSDFDRGAYVVTFVPKSWNTAPDKVKQGWP
As for B4, the Activity towards hGHQ141N (RFU/sec/µg) in the data set with hGHQ141N, P01241 is 0.8 RFU/sec/µg. The protein further showed an Activity towards hGHQ40N (RFU/sec/µg) with hGHQ40N, P01241 of 4.74 RFU/sec/µg.

B5: mTGase from Streptomyces mobaraensis (protein)
chain: DSDDRVTPPAEPLDRMPDPYRPSYGRAETVVNNYIRKWQQVYSHRDGRKQQMTEEQREWLSYGCVGVTWVNSGQYPTNRLAFASFDEDRFKNELKNGRPRSGETRAEFEGRVAKESFDEEKGFQRAREVASVMNRALENAHDESAYLDNLKKELANGNDALRNEDARSPFYSALRNTPSFKERNGGNHDPSRMKAVIYSKHFWSGQDRSSSADKRKYGDPDAFRPAPGTGLVDMSRDRNIPRSPTSPGEGFVNFDYGWFGAQTEADADKTVWTHGNHYHAPNGSLGAMHVYESKFRNWSEGYSDFDRGAYVITFIPKSWNTAPDKVKQGWP
As for B5, in the data set with hGHQ141N, P01241, the Activity towards hGHQ141N (RFU/sec/µg) is 0.98 RFU/sec/µg; the “HPLC peak area of product-Q40” value is given as “area 296”; the Q141N (remaining substrate, normalized to 100) (normalized to 100) came to 81; the product-Q40 (normalized to 100) (normalized to 100) is 19. Further, in the data set with hGHQ40N, P01241, the Activity towards hGHQ40N (RFU/sec/µg) is 3.35 RFU/sec/µg; the “HPLC peak area of product-Q141” value is on record as “area 1283”; the Q40N (remaining substrate, normalized to 100) (normalized to 100) was determined as 29; the product-Q141 (normalized to 100) (normalized to 100) amounted to 71.

B6: AlaPro-mTGase from S. ladakanum (protein)
chain: APDSDERVTPPAEPLDRMPDPYRPSYGRAETIVNNYIRKWQQVYSHRDGRKQQMTEEQREWLSYGCVGVTWVNSGQYPTNRLAFAFFDEDKYKNELKNGRPRSGETRAEFEGRVAKDSFDEAKGFQRARDVASVMNKALENAHDEGAYLDNLKKELANGNDALRNEDARSPFYSALRNTPSFKDRNGGNHDPSKMKAVIYSKHFWSGQDRSGSSDKRKYGDPEAFRPDRGTGLVDMSRDRNIPRSPTSPGESFVNFDYGWFGAQTEADADKTVWTHGNHYHAPNGSLGAMHVYESKFRNWSDGYSDFDRGAYVVTFVPKSWNTAPDKVKQGWP
B6 registered an Activity towards hGHQ141N (RFU/sec/µg) with hGHQ141N, P01241 of 1.02 RFU/sec/µg. In the data set with hGHQ40N, P01241, this protein returned an Activity towards hGHQ40N (RFU/sec/µg) of 6.91 RFU/sec/µg.

B7: GlyPro-mTGase_Y62H_Y75F from S. ladakanum (protein)
chain: B6 chain with A1G, Y64H, Y77F, K329T
In data set [1], B7 yielded an RS (relative selectivity), separate experiment of 7.6; a Selectivity (Q141/Q40), CE, separate experiment of 76.5; a hGH conv. rate (%) of 49.4%; a hGH conv. rate (%), separate experiment of 38.1%.

B8: GlyPro-mTGase_Y75N from S. ladakanum (protein)
chain: B6 chain with A1G, Y77N
With B8, in data set [1], the hGH conv. rate (%) was 44% and the “hGH conversion rate, CE, reaction time 90 m” value is recorded as “hGH conversion rate=50%”.

B9: GlyPro-mTGase_Y75F from S. ladakanum (protein)
chain: B6 chain with A1G, Y77F
B9: in data set [1], the hGH conv. rate (%) was 41% and the “hGH conversion rate, CE, reaction time 75 m” value was “hGH conversion rate=33%”.

B10: GlyPro-mTGase_Y62H_Y75N from S. ladakanum (protein)
chain: B6 chain with A1G, Y64H, Y77N
With B10, in data set [1], the hGH conv. rate (%) worked out at 38%.

B11: GlyPro-mTGase from S. ladakanum (protein)
chain: B6 chain with A1G
In the case of B11, the hGH conv. rate (%) in data set [1] turned out to be 55%. The protein also came in with an Activity towards hGHQ141N (RFU/sec/µg) in the data set with hGHQ141N, P01241 of 0.48 RFU/sec/µg. Further, the Activity towards hGHQ40N (RFU/sec/µg) with hGHQ40N, P01241 came to 4.25 RFU/sec/µg.

B12: mature mTGase from Streptoverticillium ladakanum (protein)
chain: DSDERVTPPAEPLDRMPDPYRPSYGRAETIVNNYIRKWQQVYSHRDGRKQQMTEEQREWLSYGCVGVTWVNSGQYPTNRLAFAFFDEDKYKNELKNGRPRSGETRAEFEGRVAKDSFDEAKGFQRARDVASVMNKALENAHDEGAYLDNLKKELANGNDALRNEDARSPFYSALRNTPSFKDRNGGNHDPSKMKAVIYSKHFWSGQDRSGSSDKRKYGDPEAFRPDRGTGLVDMSRDRNIPRSPTSPGESFVNFDYGWFGAQTEADADKTVWTHGNHYHAPNGSLGAMHVYESKFRNWSDGYSDFDRGAYVVTFVPKSWNTAPDKVKQGWP
Take B12: in the data set with hGHQ141N, P01241, the Activity towards hGHQ141N (RFU/sec/µg) was 0.63 RFU/sec/µg; the “HPLC peak area of product-Q40” value is listed as “area 127”; the Q141N (remaining substrate, normalized to 100) (normalized to 100) is 90; the product-Q40 (normalized to 100) (normalized to 100) turned out to be 10. In the data set with hGHQ40N, P01241, the Activity towards hGHQ40N (RFU/sec/µg) was found to be 3.55 RFU/sec/µg; the “HPLC peak area of product-Q141” value is “area 1238”; the Q40N (remaining substrate, normalized to 100) (normalized to 100) is 23; the product-Q141 (normalized to 100) (normalized to 100) stood at 77.
